Assays:
[1] = biological target: T1, H3 HA1 subunit (A/Aichi/2/1968, HA1 subunit, Met-1-Arg 345) (Influenza A virus H3N2 A/Aichi/2/1968, UniProt P03437 17-345); experiment: ELISA; antigen coated 1 µg/ml; recombinant antibody; parameters: concentration or dose not given beside the values
T1 construct: range 1-345; also called H3N2 A/Aichi/2/1968 HA1 subunit

[2] = biological target: T1, H3 HA1 subunit (A/Aichi/2/1968, HA1 …); experiment: ELISA; HA1 subunit coated 1 µg/ml; recombinant antibody

Row | Binder | OD 450 nm [1] | binding result [2]
1 | AT10-004 (antibody, V domains shown) VH: QVQLVQSGAEVRKPGASVKVSCKASGYTFTRHGISWVRQAPGQGLEWMGWISAYTGDTDYAQKFQGRVTMTTDTSTNTAYMELRSLRSDDAAVYYCARLRLQGEVVVPPSQSNWFDPWGQGTLVTVSS VL: EIVLTQSPATLSLYPGERATLSCRASQSVSRYLAWYQQKPGQAPRLLIYDASNRATGIPARFSGSGSGTDFTLTISSLEPEDFAVYYCQQRSNWLKITFGQGTRLEIKG | 0.096 OD 450 nm | no binding
2 | AT10-002 (antibody, V domains shown) VH: QLQLQESGPRLVKPSETLSLTCSVSGVSISSSNYYWGWIRQPPGKGLEWIGTIYHSGSTYYNPSLKSRLIISVDTSKNQFYLQLTSLTAADSAVYYCATGGGFGWSQTYFGYWGQGTLVTASS VL: QSALTQPASVSGSPGQSITISCTGTSSDVGAYNYVSWYQHHPGKAPKLMIYDVTYRPSGVSTRFSGSKSGNTASLTISGLQAEDEADYYCSSQSRSSTLVIFGGGTKLTVLG | -0.006 OD 450 nm | 
3 | AT10-003 (antibody, V domains shown) VH: QVHLVQSGAEVRKPGASVKVSCKVSGYTLNELSIHWLRQAPGRGLEWMGSFDPEDGETIYAQKFQGRVTMTGDTSTDTAYLELTSLRSEDTALYYCARGWGAVTSPFDFWGQGTLVTVSS VL: DIVMTQSPLSLPVTPGEPASISCRSSQSLLHSNGHIYFDWYLQKPGQSPQLLIYLVSKRASGVPDRFSGSGSGTDFTLKISRVEAEDVGVYYCMQALETPFTFGPGTKVHIKR | 1.28 OD 450 nm | 
4 | AT10-001 (antibody, V domains shown) VH: EVQLLESGGGLVQPGGSLRLSCAASGFSFSTYAMSWVRQAPGKGLEWVSGISGSGESTYYADSVKGRFTVSRDNSKNTLYLQMNSLRAEDTAVYYCAKQGDHIAWLLRGINFDYWGQGVLVTVSS VL: EIVLTQSPGTLSLSPGERATLSCRASQSVSSSYLAWYQQKPGQAPRLLIYGASTRATGIPDRFSGRGSGTDFTLTISSLEPEDFAVYYCQNYGSPFLFTFGPGTKVDIKR | 0.01 OD 450 nm | no binding

Reference: patent US20150010566A1 (AIMM THERAPEUTICS B V, published 2015)
